Measured values as given in US20220380475A1 (SORRISO PHARMACEUTICALS, published 2022).
Where a chain is given by its changes, count along the chain named. Numbers in names are those of the source.

B1: 5G9 (VHH)
VHH: EVQLVESGGGLVQAGGSTRLTCKASGSIFNINSINVMAWYRQAPGKQRELVAIIGKGGGTNYADFVKGRFTISRDAAKNTVNLQMNSLKPEDTAVYYCYADYEDRDSPFNASWGQGTQVTVSS
notes: also called VIL-5G9; 'Wild type' 5G9; not shown: C-terminal Flag and 6xHis tags from vector pMEK222
B2: ID-52V (VHH)
VHH: B1 VHH with R105H, F109H
notes: Mutant of 5G9; also called 5G9 + F109H, R105H; not shown: C-terminal Flag- and His-tags of E. coli constructs
B3: ID-59V (VHH)
VHH: B1 VHH with Y62D
notes: Mutant of 5G9; also called 5G9 + Y62D; not shown: C-terminal Flag- and His-tags of E. coli constructs
B4: ID-56V (VHH)
VHH: B1 VHH with F29S
notes: Mutant of 5G9; also called 5G9 + F29S; not shown: C-terminal Flag- and His-tags of E. coli constructs
B5: ID-58V (VHH)
VHH: B1 VHH with F65V
notes: Mutant of 5G9; also called 5G9 + F65V; not shown: C-terminal Flag- and His-tags of E. coli constructs
B6: ID-54V (VHH)
VHH: B1 VHH with R105H
notes: Mutant of 5G9; also called 5G9 + R105H; not shown: C-terminal Flag- and His-tags of E. coli constructs
B7: ID-57V (VHH)
VHH: B1 VHH with F29I
notes: Mutant of 5G9; also called 5G9 + F29I; not shown: C-terminal Flag- and His-tags of E. coli constructs
B8: ID-55V (VHH)
VHH: B1 VHH with K23H
notes: Mutant of 5G9; also called 5G9 + K23H; not shown: C-terminal Flag- and His-tags of E. coli constructs
B9: ID-53V (VHH)
VHH: B1 VHH with F109H
notes: Mutant of 5G9; also called 5G9 + F109H; not shown: C-terminal Flag- and His-tags of E. coli constructs
B10: ID-122V (VHH)
VHH: B1 VHH with F29S, Q47G, K89R, R105H, F109H
notes: E. coli-produced trans-selective 5G9 derivative; also called 5G9 + F29S, Q47G, K89R, R105H, F109H; not shown: C-terminal FLAG-6xHis
B11: 20A11 (prior art comparative example) (VHH)
VHH: EVQLVESGGGLVQPGGSLRLSCAASGSVFKINVMAWYRQAPGKGRELVAGIISGGSTSYADSVKGRFTISRDNAKNTLYLQMNSLRPEDTAVYYCAFITTESDYDLGRRYWGQGTLVTVSS
notes: Prior art anti-IL-6R polypeptide disclosed in WO 2010/115998; also called PMP20A11
B12: 4D3 (VHH)
VHH: EVQLVESGGGSVQAGESLTLSCVASISTFSQNAMGWFRQAAGKRRESVARISSSGNVGYTDAVKGRFTMSRDNAKKTVYLQMNSLKPEDTAVYYCNAYSMSGELAAPWGQGTQVTVSS
notes: Llama ICVD from library 46-3, produced in E. coli; also called VIL-4D3; not shown: C-terminal Flag and 6xHis tags from vector pMEK222
B13: 3C12 (VHH)
VHH: EVQLVESGGGLAQLGGSLRLSCVASGNIFSSNTAGWFRQAPGKQREWVAGISIGGMPAYADSVKGRFTISRDNAKNTVYLQMNSLKPEDTAVYYCATGGTEYDYWGQGTQVTVSS
notes: Llama ICVD from library 37-3, produced in E. coli; also called VIL-3C12; not shown: C-terminal Flag and 6xHis tags from vector pMEK222
B14: ID-3V (VHH)
VHH: EVQLVESGGGLVQAGGSTRLTCLASGSISSINVIGWYRQAPGKQRELVAMIGRGEGANYGDFAKGRFTISRDNSKNTVYLQMNSLKPEDTAVYYCYADYEDHDSPFNGSWGQGTQVTVSS
notes: Mutant of 7F6; also called 7F6 + R102H; not shown: C-terminal Flag- and His-tags of E. coli constructs
B15: ID-6V (VHH)
VHH: B14 VHH with H102R, F106H
notes: Mutant of 7F6; also called 7F6 + F106H; not shown: C-terminal Flag- and His-tags of E. coli constructs
B16: ID-40V (VHH)
VHH: B14 VHH with F106H
notes: Mutant of 7F6; also called 7F6 + R102H, F106H; not shown: C-terminal Flag- and His-tags of E. coli constructs
B17: ID-49V (VHH)
VHH: B14 VHH with H102R, F106T
notes: Mutant of 7F6; also called 7F6 + F106T; not shown: C-terminal Flag- and His-tags of E. coli constructs
B18: ID-50V (VHH)
VHH: B14 VHH with H102R, F106V
notes: Mutant of 7F6; also called 7F6 + F106V; not shown: C-terminal Flag- and His-tags of E. coli constructs
B19: ID-47V (VHH)
VHH: B14 VHH with H102R, F106I
notes: Mutant of 7F6; also called 7F6 + F106I; not shown: C-terminal Flag- and His-tags of E. coli constructs

Target: T1, recombinant soluble human IL-6R (human, UniProt P08887 20-365)
T1 construct: also called sIL-6R; shIL-6R
T1 sequence: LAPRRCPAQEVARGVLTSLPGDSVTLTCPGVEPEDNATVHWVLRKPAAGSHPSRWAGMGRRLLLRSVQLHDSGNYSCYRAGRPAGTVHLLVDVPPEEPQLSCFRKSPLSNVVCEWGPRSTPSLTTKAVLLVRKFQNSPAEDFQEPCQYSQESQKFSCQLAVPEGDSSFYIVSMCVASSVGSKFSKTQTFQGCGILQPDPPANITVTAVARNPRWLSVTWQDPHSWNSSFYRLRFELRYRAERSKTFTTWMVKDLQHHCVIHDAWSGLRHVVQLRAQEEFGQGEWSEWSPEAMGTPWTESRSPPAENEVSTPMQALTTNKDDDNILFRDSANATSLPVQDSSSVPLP
Test: standard gp130 ELISA (competition); 10 ng/mL IL-6R, 50 ng/mL IL-6; column 'Potency'
Procedure: Mutant 5G9 sequences were produced and tested for their potency in the standard gp130 ELISA. The standard gp130 ELISA has a final assay concentration of 10 ng/mL IL-6R and 50 ng/mL IL-6.

| Binder | IC50 [nM] |
| --- | --- |
| B1 | 0.09 |
| B2 | 0.24 |
| B3 | 0.11 |
| B4 | 0.07 |
| B5 | 0.36 |
| B6 | 0.15 |
| B7 | 0.31 |
| B8 | 0.11 |
| B9 | 0.3 |

Target: T1, recombinant soluble human IL-6R
Test: standard gp130 ELISA (competition), Experiment 2; 10 ng/mL IL-6R, 50 ng/mL IL-6
Procedure: The inhibitory potency and efficacy (maximal inhibition) of the E. coli-produced 5G9 derivatives were confirmed in vitro in the gp130 ELISA, TF-1 cell and M1 cell functional assays measuring responses mediated via human IL-6R. The gp130 assays follow the standard protocol with a final assay concentration of 10 ng/mL IL-6R and 50 ng/mL IL-6.

| Binder | EC50 [nM] |
| --- | --- |
| B10 | 0.489 |
| B11 | 0.22 |

Target: T2, membrane-bound human IL-6R on TF-1 cells (human, UniProt P08887 20-468)
T2 sequence: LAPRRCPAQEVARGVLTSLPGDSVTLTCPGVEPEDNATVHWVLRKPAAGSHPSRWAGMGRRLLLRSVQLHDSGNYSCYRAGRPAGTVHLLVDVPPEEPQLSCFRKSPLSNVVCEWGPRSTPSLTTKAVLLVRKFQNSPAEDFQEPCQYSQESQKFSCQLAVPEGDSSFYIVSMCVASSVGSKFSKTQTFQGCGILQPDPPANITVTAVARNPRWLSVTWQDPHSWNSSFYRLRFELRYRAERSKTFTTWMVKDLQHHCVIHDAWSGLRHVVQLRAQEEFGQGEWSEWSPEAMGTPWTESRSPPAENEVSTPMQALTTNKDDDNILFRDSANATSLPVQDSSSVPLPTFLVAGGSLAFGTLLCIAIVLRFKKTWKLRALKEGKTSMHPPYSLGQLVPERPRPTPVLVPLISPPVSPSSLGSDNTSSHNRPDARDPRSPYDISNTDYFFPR
Test: cell-based or functional assay

| Binder | IC50 of inhibition of IL-6-induced TF-1 cell proliferation [nM] |
| --- | --- |
| B1 | 0.9 |
| B12 | 26 |
| B11 | 1.1 |
| B13 | 44.6 |

Target: T1, recombinant soluble human IL-6R
Test: standard gp130 ELISA (competition); reference 5G9

| Binder | fold increase of IC50 against 5G9 [fold] |
| --- | --- |
| B5 | ~3 |
| B7 | ~3 |

Target: T2, membrane-bound human IL-6R on TF-1 cells
Test: cell-based or functional assay
Remark: another data set of the same source

| Binder | TF-1 cell assay EC50 (5 ng/ml IL-6) [nM] |
| --- | --- |
| B11 | 0.56 |

Target: T3, cynomolgus monkey soluble IL-6R (from cynomolgus monkey serum) (cynomolgus monkey, UniProt P08887 20-365 (human entry))
T3 construct: Natural soluble IL-6R present in diluted normal cynomolgus monkey serum; also called cyno IL6R; cynomolgous sIL-6R
T3 chain: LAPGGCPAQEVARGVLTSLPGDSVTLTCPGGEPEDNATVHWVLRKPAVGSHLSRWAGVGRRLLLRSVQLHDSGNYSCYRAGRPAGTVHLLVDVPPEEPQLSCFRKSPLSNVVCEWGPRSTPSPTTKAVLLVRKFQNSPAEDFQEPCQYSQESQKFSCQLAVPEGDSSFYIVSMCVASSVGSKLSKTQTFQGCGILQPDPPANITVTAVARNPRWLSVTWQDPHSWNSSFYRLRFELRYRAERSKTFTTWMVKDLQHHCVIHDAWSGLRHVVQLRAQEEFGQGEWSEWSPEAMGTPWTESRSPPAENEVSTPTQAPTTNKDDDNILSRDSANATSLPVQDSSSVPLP
Test: ratio of gp130 ELISA IC50s on human and cynomolgus sIL-6R
Procedure: (§1) The standard anti-cynomolgus monkey IL-6R gp130 ELISA assay detailed under ‘Potency, neutralisation and inhibition’ above was performed to assay the ICVDs in parallel for their ability to neutralise sIL6R in cynomolgous monkey serum and recombinant purified human sIL6R. Briefly, Maxisorp 96-well plates were coated overnight with 50 μl/well 1 μg/ml gp130 then blocked. ICVDs were serially diluted and mixed 1:1 with 200 ng/ml recombinant human IL-6, then 1:1 with either 20 ng/ml recombinant human sIL-6R or a 5-fold dilution of cynomolgus monkey serum and incubated for 1 hour to allow binding before adding to the gp130-coated plates. Bound cynomolgus monkey IL-6R was detected with 50 μl/well either 0.25 μg/ml (for human IL-6R) or 0.5 μg/ml (for monkey serum) BAF227 and then 50 μl/well 1/1000 Extravidin-HRP and the level of neutralisation by the ICVD of IL-6R binding to IL-6/gp130 was determined

| Binder | Ratio Cyno IC50/human IC50 (title: human IC50 divided by cynomolgous IC50) |
| --- | --- |
| B1 | 0.2 |
| B12 | 1.9 |
| B11 | 2.3 |
| B13 | 0.9 |

Target: T1, recombinant soluble human IL-6R
Test: cell-based or functional assay

| Binder | M1 cellular assay EC50 (20 ng/ml IL-6R, 100 ng/ml IL-6) [nM] |
| --- | --- |
| B10 | 3.96 |

Target: T1, recombinant soluble human IL-6R
Test: gp130 ELISA (competition): inhibition of human sIL-6R/IL-6 complex binding to coated gp130; 20 ng/mL IL6R, 100 ng/mL IL6
Procedure: Briefly, Maxisorp 96-well plates were coated overnight with 50 μl/well 0.5 μg/ml gp130 then blocked. ICVDs were serially diluted and mixed 1:1 with 100 ng/ml recombinant human IL-6 then 1:1 with 40 ng/ml recombinant human sIL-6R, and incubated for 1 hour to allow binding before adding to the gp130-coated plates. Bound IL-6R was detected with 50 μl/well 0.250 μg/ml BAF227 and then 50 μl/well 1/1000 diluted Extravidin-HRP and the level of neutralisation by the ICVD of IL-6R binding to IL-6/gp130 was determined.
Dose response curves were obtained (dose response curves of particular ICVDs illustrated in FIG. 1). […] This was confirmed with curve-fitting software (Graphpad Prism), which fitted 4 parameter curves to the data and calculated the IC50s (Table 4.1, below).

| Binder | IC50 [nM] |
| --- | --- |
| B1 | 0.16 |
| B12 | 0.66 |
| B13 | 1.89 |

Target: T3, cynomolgus monkey soluble IL-6R (from …)
Test: anti-cynomolgus IL-6R gp130 ELISA (competition): 10x diluted cynomolgus serum, 50 ng/mL human IL-6, coated human gp130
Procedure: as §1

| Binder | IC50 [nM] |
| --- | --- |
| B1 | 0.804 |
| B12 | 0.372 |
| B11 | 0.106 |
| B13 | 4.14 |

Target: T2, membrane-bound human IL-6R on TF-1 cells
Test: cell-based or functional assay
Remark: another data set of the same source

| Binder | Potency in the TF-1 assay |
| --- | --- |
| B1 | 0.23 not printed (nM in the filing's other TF-1 tables) |
| B6 | 0.31 not printed (nM in the filing's other TF-1 tables) |
| B9 | 17.5 not printed (nM in the filing's other TF-1 tables) |

Target: T1, recombinant soluble human IL-6R
Test: standard gp130 ELISA (competition); column 'Potency'

| Binder | IC50 [nM] |
| --- | --- |
| B14 | 0.16 |
| B15 | 0.22 |
| B16 | 0.21 |
| B17 | 0.31 |
| B18 | 0.24 |
| B19 | 0.27 |

Target: T1, recombinant soluble human IL-6R
Test: gp130 ELISA (competition), parallel human arm: 10 ng/mL human IL-6R, 50 ng/mL human IL-6
Procedure: as §1

| Binder | IC50 [nM] |
| --- | --- |
| B1 | 0.148 |
| B12 | 0.691 |
| B11 | 0.24 |
| B13 | 3.53 |
